Data from patent publication US20130059781A1 (Novo Nordisk, published 2013).
Numbered stars: 1 amine (or outer) side, 2 acyl side, 3 side chain; on linkers, the order of the positions; unused ones are H or OH. Side chains are listed from the residue outwards. Ends that are not written are not given here. * marks the point of attachment. C18 diacid = O=C(O)CCCCCCCCCCCCCCCCC(=O)*; γGlu = O=C(O)[C@H](CCC(=O)[*:2])N[*:1]; AEEA = NCCOCCOCC(=O)O

B1: N-α-#-[Leu15] Gastrin-17 (14-17) (peptide)
peptide: {C18 diacid-γGlu-AEEA-AEEA}-WLDF-NH2
SMILES: CC(C)C[C@H](NC(=O)[C@H](Cc1c[nH]c2ccccc12)NC(=O)COCCOCCNC(=O)COCCOCCNC(=O)CC[C@H](NC(=O)CCCCCCCCCCCCCCCCC(=O)O)C(=O)O)C(=O)N[C@@H](CC(=O)O)C(=O)N[C@@H](Cc1ccccc1)C(N)=O
B2: N-α-#-Gastrin-17 (16-17) (peptide)
peptide: {C18 diacid-γGlu-AEEA-AEEA}-Asp-Phe-NH2
SMILES: NC(=O)[C@H](Cc1ccccc1)NC(=O)[C@H](CC(=O)O)NC(=O)COCCOCCNC(=O)COCCOCCNC(=O)CC[C@H](NC(=O)CCCCCCCCCCCCCCCCC(=O)O)C(=O)O
B3: N-α-#-[Leu15] Gastrin-17 (15-17) (peptide)
peptide: {C18 diacid-γGlu-AEEA-AEEA}-Leu-Asp-Phe-NH2
SMILES: CC(C)C[C@H](NC(=O)COCCOCCNC(=O)COCCOCCNC(=O)CC[C@H](NC(=O)CCCCCCCCCCCCCCCCC(=O)O)C(=O)O)C(=O)N[C@@H](CC(=O)O)C(=O)N[C@@H](Cc1ccccc1)C(N)=O
B4: N-α-#-[Leu15] Gastrin-17 (13-17) (peptide)
peptide: {C18 diacid-γGlu-AEEA-AEEA}-GWLDF-NH2
SMILES: CC(C)C[C@H](NC(=O)[C@H](Cc1c[nH]c2ccccc12)NC(=O)CNC(=O)COCCOCCNC(=O)COCCOCCNC(=O)CC[C@H](NC(=O)CCCCCCCCCCCCCCCCC(=O)O)C(=O)O)C(=O)N[C@@H](CC(=O)O)C(=O)N[C@@H](Cc1ccccc1)C(N)=O

Biological target: CCK2 receptor (gastrin receptor)
Test: cell-based or functional assay

Relative Receptor Potency | Binder
0 | B1
76 | {C18 diacid-γGlu-AEEA-AEEA}-QGPWLEEEEEAYGWLDF-NH2 (ends and bridges not checked) [N-α-#-[Leu15] Gastrin-17]
0 | B2
30 | {C18 diacid-γGlu-AEEA-AEEA}-EEAYGWLDF-NH2 (ends and bridges not checked) [N-α-#-[Leu15] Gastrin-17 (9-17)]
0 | B3
6 | B4
58 | {C18 diacid-γGlu-AEEA-AEEA}-WLEEEEEAYGWLDF-NH2 (ends and bridges not checked) [N-α-#-[Leu15] Gastrin-17 (4-17)]
39 | {C18 diacid-γGlu-AEEA-AEEA}-EEEEAYGWLDF-NH2 (ends and bridges not checked) [N-α-#-[Leu15] Gastrin-17 (7-17)]
100 | QGPWLEEEEEAYGWLDF-NH2 (ends and bridges not checked) [[Leu15] Gastrin-17]
7 | {C18 diacid-γGlu-AEEA-AEEA}-YGWLDF-NH2 (ends and bridges not checked) [N-α-#-[Leu15] Gastrin-17 (12-17)]

Biological target: CCK2 receptor (gastrin receptor)
Test: cell-based or functional assay
Remark: another data set of the same source

Relative Receptor Potency | Binder
0 | QGPWLEEEEEAYGWLK([AEEA-AEEA-γGlu-C18 diacid])F-NH2 (ends and bridges not checked) [[Lys16(N-ε-#),Leu15] Gastrin-17]
0 | QGPWLEEEEEAYGWK([AEEA-AEEA-γGlu-C18 diacid])DF-NH2 (ends and bridges not checked) [[Lys15(N-ε-#)] Gastrin-17]
57 | {C18 diacid-γGlu-AEEA-AEEA}-QGPWLEEEEEAYGWLDF-NH2 (ends and bridges not checked) [N-α-#-[Leu15] Gastrin-17]
40 | QGPWLK([AEEA-AEEA-γGlu-C18 diacid])EEEEAYGWLDF-NH2 (ends and bridges not checked) [[Lys6(N-ε-#),Leu15] Gastrin-17]
0 | QGPWLEEEEEAYGK([AEEA-AEEA-γGlu-C18 diacid])LDF-NH2 (ends and bridges not checked) [[Lys14(N-ε-#),Leu15] Gastrin-17]
30 | QGPK([AEEA-AEEA-γGlu-C18 diacid])LEEEEEAYGWLDF-NH2 (ends and bridges not checked) [[Lys4(N-ε-#),Leu15] Gastrin-17]
5 | QGPWLEEEEEAYK([AEEA-AEEA-γGlu-C18 diacid])WLDF-NH2 (ends and bridges not checked) [[Lys13(N-ε-#),Leu15] Gastrin-17]
0 | QGPWLEEEEEAYGWLDK([AEEA-AEEA-γGlu-C18 diacid])-NH2 (ends and bridges not checked) [[Lys17(N-ε-#), Leu 15] Gastrin-17]
100 | QGPWLEEEEEAYGWLDF-NH2 (ends and bridges not checked) [[Leu15] Gastrin-17]
60 | QGK([AEEA-AEEA-γGlu-C18 diacid])WLEEEEEAYGWLDF-NH2 (ends and bridges not checked) [[Lys3(N-ε-#),Leu15] Gastrin-17]
6 | QGPWLEEEEEAK([AEEA-AEEA-γGlu-C18 diacid])GWLDF-NH2 (ends and bridges not checked) [[Lys12(N-ε-#),Leu15] Gastrin-17]
